Measured values published in paper doi:10.1101/529222 (bioRxiv, 2019).

Target: GST-EVH1 domain of VASP (UniProt P70460 1-113)
Test: pull-down

Chain of GST-EVH1 domain of VASP (P70460 1-113): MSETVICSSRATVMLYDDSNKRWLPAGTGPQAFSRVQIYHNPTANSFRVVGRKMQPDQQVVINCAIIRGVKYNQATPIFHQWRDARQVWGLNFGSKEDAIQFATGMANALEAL

fold change of TRIM9 precipitated, Trim67-/- lysate against wild-type lysate: ~2 fold
B1: endogenous TRIM9 (natural protein, mouse (endogenous in E15.5 cortex), UniProt Q8C7M3 1-817, looked up)
chain: MEEMEEELKCPVCGSFYREPIILPCSHNLCQACARNILVQTPESESPQSRRASGSGVSDYDYLDLDKMSLYSEADSGYGSYGGFASAPTTPCQKSPNGVRVFPPAMPPPPTHLSPALAPVPRNSCITCPQCHRSLILDDRGLRGFPKNRVLEGVIDRYQQSKAAALKCQLCEKAPKEATVMCEQCDVFYCDPCRLRCHPPRGPLAKHRLVPPAQGRVSRRLSPRKVSTCTDHELENHSMYCVQCKMPVCYQCLEEGKHSSHEVKALGAMWKLHKSQLSQALNGLSDRAKEAKEFLVQLRTMVQQIQENSVEFEACLVAQCDALIDALNRRKAQLLARVNKEHEHKLKVVRDQISHCTVKLRQTTGLMEYCLEVIKENDPSGFLQISDALIRRVHLTEDQWGKGTLTPRMTTDFDLSLDNSPLLQSIHQLDFVQVKASSPVPATPILQLEECCTHNNSATLSWKQPPLSTVAADGYILELDDGSGGQFREVYVGKETMCTVDGLHFNSTYNARVKAFNKTGVSPYSKTLVLQTSEAAGAHETKPMKDTDSEEQTLPFPVPSERLPLRRMSPFSSTLNLQPSFPGRSYFDFRSSPHQLSLHSSLQSLNAPGCNFETQSASYSQLVDIKKLLAVAWFAFDPGSAHSDIIFSNDNLTVTCSSYDDRVVLGKTGFSKGVHYWELTIDRYDNHPDPAFGVARIDVMKDMMLGKDDKAWAMYVDNNRSWFMHNNSHTNRTEGGITKGATIGVLLDLNRKTLTFFVNNEQQGPIAFENVEGLFFPAVSLNRNVQVSLWAPGLRACSGCYFKVCPGAVKSPQAPAP
